Source: patent US20180177810A1 (UNIVERSITY OF NOTRE DAME DU LAC, published 2018)
Where no end group is shown, it is not given here.

Biological target: T1, Very late antigen-4 (VLA-4; α4β1 integrin) on multiple myeloma cell lines (human, UniProt P13612 34-1032; P05556 21-798)
T1 construct: whole, on cells; also called VLA-4 receptor
Test: peptide screen of Example 1 (FITC-labeled peptides on MM cells, flow cytometry)

T1 sequence (P13612 34-1032, chain 1 of 2): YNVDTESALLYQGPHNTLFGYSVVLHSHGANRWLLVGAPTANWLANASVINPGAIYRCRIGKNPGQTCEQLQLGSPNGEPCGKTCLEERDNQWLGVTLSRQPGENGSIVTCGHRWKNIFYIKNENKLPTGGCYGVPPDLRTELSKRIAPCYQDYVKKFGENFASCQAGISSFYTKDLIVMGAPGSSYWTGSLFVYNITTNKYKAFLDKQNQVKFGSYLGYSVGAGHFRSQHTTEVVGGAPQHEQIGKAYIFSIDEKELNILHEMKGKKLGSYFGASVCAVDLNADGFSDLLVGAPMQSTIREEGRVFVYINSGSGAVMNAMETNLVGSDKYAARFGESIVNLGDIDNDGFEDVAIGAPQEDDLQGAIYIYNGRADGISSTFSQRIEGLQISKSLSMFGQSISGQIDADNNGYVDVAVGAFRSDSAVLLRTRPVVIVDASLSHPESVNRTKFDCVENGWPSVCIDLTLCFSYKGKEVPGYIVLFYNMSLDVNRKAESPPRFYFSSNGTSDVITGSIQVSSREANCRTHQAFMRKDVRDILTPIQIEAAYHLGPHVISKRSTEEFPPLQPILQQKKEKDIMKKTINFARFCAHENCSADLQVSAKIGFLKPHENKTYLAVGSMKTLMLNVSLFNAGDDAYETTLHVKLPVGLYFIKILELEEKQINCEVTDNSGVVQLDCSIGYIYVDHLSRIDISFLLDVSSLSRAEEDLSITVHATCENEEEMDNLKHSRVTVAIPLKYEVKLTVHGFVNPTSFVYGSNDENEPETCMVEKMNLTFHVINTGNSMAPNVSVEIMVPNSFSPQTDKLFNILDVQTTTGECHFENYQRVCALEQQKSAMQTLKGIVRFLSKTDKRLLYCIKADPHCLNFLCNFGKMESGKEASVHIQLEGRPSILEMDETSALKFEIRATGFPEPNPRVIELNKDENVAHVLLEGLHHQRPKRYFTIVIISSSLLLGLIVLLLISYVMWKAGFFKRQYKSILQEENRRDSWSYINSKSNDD
T1 sequence (P05556 21-798, chain 2 of 2): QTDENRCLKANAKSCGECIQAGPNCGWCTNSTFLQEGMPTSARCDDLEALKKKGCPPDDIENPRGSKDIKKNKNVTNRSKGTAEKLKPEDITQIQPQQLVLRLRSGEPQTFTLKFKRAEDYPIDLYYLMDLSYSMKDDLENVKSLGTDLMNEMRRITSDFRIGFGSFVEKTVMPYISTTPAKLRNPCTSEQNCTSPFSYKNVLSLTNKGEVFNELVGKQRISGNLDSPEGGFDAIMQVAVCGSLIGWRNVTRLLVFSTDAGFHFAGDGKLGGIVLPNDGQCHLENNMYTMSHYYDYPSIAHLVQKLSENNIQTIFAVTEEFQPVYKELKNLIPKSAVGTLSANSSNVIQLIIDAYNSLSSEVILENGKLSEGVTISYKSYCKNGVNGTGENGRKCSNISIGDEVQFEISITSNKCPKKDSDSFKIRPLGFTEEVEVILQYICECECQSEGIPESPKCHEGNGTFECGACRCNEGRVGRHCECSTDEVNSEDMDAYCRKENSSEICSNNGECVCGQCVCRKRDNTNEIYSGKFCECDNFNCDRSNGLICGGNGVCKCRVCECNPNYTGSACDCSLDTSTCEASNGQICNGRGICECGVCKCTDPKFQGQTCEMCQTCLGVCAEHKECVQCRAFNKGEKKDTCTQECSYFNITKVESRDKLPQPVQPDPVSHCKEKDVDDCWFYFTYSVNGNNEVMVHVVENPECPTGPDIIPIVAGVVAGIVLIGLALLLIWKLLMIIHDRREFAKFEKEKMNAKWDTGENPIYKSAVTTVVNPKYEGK

B1: peptide sequence CFLDFP (peptide)
peptide: CFLDFP
modifications: not fully specified (C-terminus); also: FITC-labelled version synthesized for binding assays
notes: The assay for this peptide is not described separately
  binding result: binds
